Results reported in US7265263B1, “Potato transcription factors, methods of use thereof, and a method for enhancing tuber development” (Iowa State University Research Foundation, Inc., priority 2002, dated 2007).
Entries after “also recorded” stand apart in the source; their conditions may differ.

Experiments:
[1] = system: POTH1 overexpression lines; test: Exogenous GA3 application to POTH1 overexpression lines; format: in vivo, Solanum tuberosum
Source text: Many of the traits of the phenotypes observed in POTH1 overexpression lines were similar to GA-deficient mutants. These similarities included decreased plant height, decreased internode length, and darker green coloration of the leaves (van den Berg et al., “Morphology and [^14C]Gibberellin A12 Metabolism in Wild-Type and Dwarf Solanum Tuberosum ssp. Andigena Grown Under Long and Short Photoperiods,” J. Plant Physiol. 146:467-473 (1995), which is hereby incorporated by reference in its entirety). Because of this, exogenous GA3 was applied to determine whether the overexpression lines were responsive to GA treatment. The shoot apex of overexpression lines was sprayed to runoff with 10 μM GA3 in 0.002% (v/v) ethanol or with 0.002% (v/v) ethanol alone. […] Palisade and spongy parenchyma organization is partially rescued in leaves from line 15 treated with GA3 (FIG. 5G). The GA3-treated leaf (FIG. 5J) of the severe mutant, line 15, is more similar in morphology to the wild-type leaf (FIG. 5K). Leaflets are more ovate in form rather than the typical mouse-ear shape. Wild-type leaves have a prominent mid-vein (FIG. 5L), whereas the mid-vein (FIG. 5M, arrow) is more prominent in the mutant GA3-treated leaf than in the mutant untreated leaf (FIG. 5N). […]

POTH1 = test: Yeast two-hybrid interaction with POTH1; format: binding, Solanum tuberosum; conditions: nutritional selection and lacZ activation, yeast AH109
Chain of POTH1 (as listed by the source): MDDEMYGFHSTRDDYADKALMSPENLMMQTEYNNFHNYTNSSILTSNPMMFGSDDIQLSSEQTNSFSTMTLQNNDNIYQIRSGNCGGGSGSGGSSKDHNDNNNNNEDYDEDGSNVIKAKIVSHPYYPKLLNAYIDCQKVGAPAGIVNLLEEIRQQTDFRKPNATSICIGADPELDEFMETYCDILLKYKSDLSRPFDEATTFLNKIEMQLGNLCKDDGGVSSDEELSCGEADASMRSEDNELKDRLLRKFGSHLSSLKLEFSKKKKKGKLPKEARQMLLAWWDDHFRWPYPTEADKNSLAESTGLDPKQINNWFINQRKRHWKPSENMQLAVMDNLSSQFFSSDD
Source text: The Matchmaker two-hybrid system (Clontech, Calif.) was used for the yeast two-hybrid screen. Yeast transformation and plasmid rescue into DH5-α E. coli cells were according to the manufacturer's instructions. Full-length POTH1 was cloned into the pBridge (Clontech, Calif.) vector and used as bait to screen the potato (S. tuberosum ‘Desireé’) stolon cDNA library in pAD-GAL4-2.1 (Stratagene, Calif.). Positive interactions were confirmed by cotransforming yeast strain AH109 with each purified pAD plasmid and pBridge: POTH1 and plating on -leucine/-tryptophan (transformation control) and -leucine/-tryptophan/-histidine/-adenine (selection) nutrient medium. Induction of the AH109 reporter gene, lacZ, was measured with a yeast β-galactosidase assay kit (Pierce Chemicals). β-galactosidase activity (FIG. 9B) was determined from a known density of yeast cells and calculated as 1000×OD420/time of color reaction (minutes)×volume of yeast culture (ml)×OD600.
The StBEL-05 deletion constructs were amplified by PCR, then cloned into the vector, pGAD, in-frame with the GAL4 activation domain. POTH1 deletion constructs were amplified by PCR, and cloned into pBridge (Clontech) in-frame with the GAL4 binding domain. Sequencing of selected cDNAs and constructs was performed at the Iowa State University DNA Facility. For deletion analysis, modified constructs of POTH1 were cloned into the pBridge vector for fusion with the DNA-binding domain of GAL4 (FIG. 10A). For StBEL-05, constructs were cloned into the pGAD vector for fusion with the activating domain of GAL4 (FIG. 10B). Deletion constructs were made from both the amino and carboxy termini. These mutants were then tested for interaction in the yeast two-hybrid system by cotransforming into yeast strain AH109 with the corresponding full-length partner (StBEL-05 in pGAL4 or POTH1 in pBridge). All constructs were sequenced to verify that they were in-frame. Positive interactions were verified for lacZ induction by using a β-galactosidase assay (Pierce Chemical Company). For POTH1, seven deletion constructs were tested (FIG. 10A). For the BEL TFs, a fusion construct of StBEL-05 (653 aa of StBEL-05 sequence) and nine deletion constructs were tested (FIG. 10B).

C=C1C[C@]23C[C@@]1(O)CC[C@H]2[C@@]12C=C[C@H](O)[C@@](C)(C(=O)O1)[C@H]2[C@@H]3C(=O)O [GA3]
effect on leaf morphology ([1]; 10 μM GA3 sprayed on shoot apex): partially rescued the leaf morphology of both severe and intermediate phenotypes; also recorded: partial reversal of the leaf phenotype | effect on dwarf phenotype ([1]; GA3 application): completely rescued the dwarf phenotype

B1: pAD5-9: StBEL-05 deletion construct, aa 1 through 315 (protein)
chain: MNPNNYMQGYTTSDTQQQQQLLFLNSSPAASNALCHANIQHAPLQQQHFVGVPLPAVSLHDQINHHGLLQRMWNNQDQSQQVIVPSSTGVSATSCGGITTDLASQLAFQRPIPTPQHRQQQQQQGGLSLSLSPQLQQQISFNNNISSSSPRTNNVTIRGTLDGSSSNMVLGSKYLKAAQELLDEVVNIVGKSIKGDDQKKDNSMNKESMPLASDVNTNSSGGGESSSRQKNEVAVELTTAQRQELQMKKAKLLAMLEEVEQRYRQYHHQMQIIVLSFEQVAGIGSAKSYTQLALHAISKQFRCLKDAIAEQVKAT
modifications: left off: large carriers
interaction with POTH1 (POTH1): demonstrated an interaction; also recorded: interaction with POTH1

B2: StBEL-11: BEL transcription factor from Solanum tuberosum, SEQ ID NO:4 (protein, listed as Solanum tuberosum)
chain: MTFRSSLPLDLREISTTNHQVGILSSSPLPSPGTNTNNINHTRGLGASSSFSISNGMILGSKYLKVAQDLLDEVVNVGKNIKLSDGLESGAKEKHKLDNELISLASDDVESSSQKNSGVELTTAQRQELQMKKAKLVSMLDEVDQRYRQYHHQMQMIATSFEQTTGIGSSKSYTQLALHTISKQFRCLKDAISGQIKDTSKTLGEEENIGGKIEGSKLKFVDHHLRQQRALQQLGMMQTNAWKPQRGLPERAVSVLRAWLFEHFLHPYPKDSDKIILAKQTGLTRSQVSNWFINARVRLWKPMVEEMYMEEVKKNNQEQNIEPNNNEIVGSKSSVPQEKLPISSNIIHNASPNDISTSTISTSPTGGGGSIPTQTVAGFSFIRSLNMENIDDQRNNKKARNEMQNCSTSTILSMEREIINKVVQDETIKSEKFNNTQTRECYSLMTPNYTMDDQFGTRFNNQNHEQLATTTTFHQGNGHVSLTLGLPPNSENQHNYIGLENHYNQPTHHPNISYENIDFQSGKRYATQLLQDFVS
interaction with POTH1 (POTH1): showed selective interaction

B3: StBEL-22: BEL transcription factor from Solanum tuberosum, SEQ ID NO:10 (protein, listed as Solanum tuberosum)
chain: TSVYETAGLLSEMFNFQTTSTAATELLQNQLSNNYRHPNQQPHHQPPTREWFGNRQEIVVGGSLQVTFGDTKDDVNAKVLLSNRDSVTDYYQRQHNQVPSINTAESMQLFLMNPQPSSPSQSTPSTLHQGFSSPVGGHFSQFMCGGASTSSNPIGGVNVIDQGQGLSLSLSSTLQHLEASKVEDLRMNSGGEMLFFNQESQNHHNIGFGSSLGLVNVLRNSKYVKATQELLEEFCCVGKGQLFKKINKVSRNNNTSTSPIINPSGSNNNNSSSSKAIIPPNLSTAERLDHQRRKVKLLSMLDEVEKRYNHYCEQMQMVVNSFDLVMGFGAAVPYTALAQKAMSRHFKCLKDGVAAQLKKTCEALGEKDASSSSGLTKGETPRLKVLEQSLRQQRAFQQMGMMEQEAWRPQRGLPERSVNILRAWLFEHFLHPYPSDADKHLLARQTGLSRNQVANWFINARVRLWKPMVEEMYQREVNEDDVDDMQENQNSTNTQIPTPNIIITTNSNITETKSAATATIASDKKPQINVSEIDPSIVAMNTHYSSSMPTQLTNFPTIQDESDHILYRRSGAEYGTTNMASNSEIGSNMITFGTTTASDVSLTLGLRHAGNLPENTHFSG
interaction with POTH1 (POTH1): showed selective interaction

B4: StBEL-14: BEL transcription factor from Solanum tuberosum, SEQ ID NO:8 (protein, listed as Solanum tuberosum)
chain: MVNHQLQNFETNPEMYNLSSTTSSMDQMIGFPPNNNNPHHVLWKGNFPNKINGVDDDDHGPSSSKNIISEQFYQHGSHENMLTTTTTHHDDHQGSWHHDNNRTLLVDDPSMRCVFPCEGNERPSHGLSLSLCSSNPSSIGLQSFELRHQDLQQGLIHDGFLGKSTNIQQGYFHHHHQVRDSKYLGPAQELLSEFCSLGIKKNNDHSSSKVLLKQHESTASTSKKQLLQSLDLLELQKRKTKLLQMLEEVDRRYKHYCDQMKAVVSSFEAVAGNGAATVYSALASRAMSRHFRCLRDGIVAQIKATKMAMGEKDSTSTLIPGSTRGETPRLRLLDQTLRQQKAFQQMNMMETHPWRPQRGLPERSVSVLRAWLFEHFLHPYPSDVDKHILARQTGLSRSQVSNWFINARVRLWKPMVEEMYLEETKEEENVGSPDGSKALIDDMTIHQSHIDHHQADQKPNLVRIDSECISSIINHQPHEKNDQNYGVIRGGDQSFGAIELDFSTNIAYGTSGGDHHHHGGGVSLTLGLQQHGGSGGSSMGLTTFSSQPSHNQSSLFYPRDDDQVQYSSLLDSENQNLPYRNLDGGTTSS
interaction with POTH1 (POTH1): showed selective interaction

B5: StBEL-29: BEL transcription factor from Solanum tuberosum, SEQ ID NO:12 (protein, listed as Solanum tuberosum)
chain: QGLSLSLSSSQQPGFGNFTAARELVSSPSGSASASGIQQQQQQQQSISSVPLSSKYMKAAQELLDEVVNVGKSMKSTNSTDVVVNNDVKKSKNMGDMDGQLDGVGADKDGAPTTELSTGERQEIQMKKAKLVNMLDEVEQRYRHYHHQMQSVIHWLEQAAGIGSAKTYTALALQTISKQFRCLKDAIIGQIRSASQTLGEEDSLGGKIEGSRLKFVDNQLRQQRALQQLGMIQHNAWRPQRGLPERAVSVLRAWLFEHFLHPYPKDSDKMMLAKQTGLTRSQVSNWFINARVRLWKPMVEEMYLEEIKEHEQNGLGQEKTSKLGEQNEDSTTSRSIATQDKSPGSDSQNKSFVSKQDNHLPQHNPASPMPDVQRHFHTPIGMTIRNQSAGFNLIGSPEIESINITQGSPKKPRNNEMLHSPNSIPSINMDVKPNEEQMSMKFGDDRQDRDGFSLMGGPMNFMGGFGAYPIGEIARFSTEQFSAPYSTSGTVSLTLGLPHNENLSMSATHHSFLPIPTQNIQIGSEPNHEFGSLNTPTSAHSTSSVYETFNIQNRKRFAAPLLPDFVA
interaction with POTH1 (POTH1): showed selective interaction
